The text below walks through data of patent US20250325672A1.

The Kd is the concentration at which binding is half-saturated. A lower Kd goes with higher affinity.

Non-standard residues stand in square brackets, D forms with d. No end group written: not given here. Sar = CNCC(=O)O

Assay [1] concerns the target wild-type (WT) S1 domain of the SARS-COV-2 Spike Protein (ACROBiosystems, S1N-C82E8) (SARS-CoV-2), P0DTC2. Briefly: FP direct binding.
Assay [2] deals with COVID-19 S1 Spike Protein Mutant A475V (SARS-CoV-2), P0DTC2. Briefly: FP direct binding.
Assay [3] has as its target COVID-19 S1 Spike Protein Mutant Y453F (SARS-CoV-2), P0DTC2. Put plainly: FP direct binding.
Assay [4] concerns the target COVID-19 S1 Spike Protein Mutant N501Y (SARS-CoV-2), P0DTC2. Briefly: FP direct binding.
Assay [5] deals with COVID-19 S1 Spike Protein Mutant V483A (SARS-CoV-2), P0DTC2. Briefly: FP direct binding.
Assay [6] deals with COVID-19 S1 Spike Protein Mutant G476S (SARS-CoV-2), P0DTC2. Put plainly: FP direct binding.
The target in assay [7] is COVID-19 S1 Spike Protein Mutant N439K (SARS-CoV-2), P0DTC2. Briefly: FP direct binding.
Assay [8] concerns the target COVID-19 S1 Spike Protein Mutant E484K (SARS-CoV-2), P0DTC2. Briefly: FP direct binding.
Assay [9] addresses Biotinylated 2019-nCoV (COVID-19) S1 protein (16-685), His, Avitag (SARS-CoV-2), P0DTC2. Briefly: SPR, Biacore T200, geomean.
In assay [10] the target is COVID-19 S1 Spike Protein Mutant L452R (SARS-CoV-2), P0DTC2. Put plainly: FP direct binding.
Assay [11] deals with COVID-19 S1 Spike Protein Mutant F490L (SARS-CoV-2), P0DTC2. Briefly: FP direct binding.
Assay [12] has as its target COVID-19 S1 Spike Protein Mutant N354D, D364Y (SARS-CoV-2), P0DTC2. Briefly: FP direct binding.
In assay [13] the target is COVID-19 S1 Spike Protein Mutant P272L (SARS-CoV-2), P0DTC2. Briefly: FP direct binding.
For assay [14], the target named is COVID-19 S1 Spike Protein Mutant A262S (SARS-CoV-2), P0DTC2. Briefly: FP direct binding.
The target in assay [15] is COVID-19 S1 Spike Protein Mutant K417N, E484K, N501Y (SARS-CoV-2), P0DTC2. Put plainly: FP direct binding.

B1: BCY16312 (peptide)
peptide: CPYVAGRGTCLLC
modifications: not checked
Molecule B1 registered a Kd in assay [1] of 759 nM.

B2: BCY15324 (peptide)
peptide: ACRQSQCDWWAIRSFCA[Sar][Sar][Sar][Sar][Sar][Sar][KFl]
modifications: cysteine pairing not given here
With B2, the Kd in assay [2] is 629 nM; in assay [3], 366 nM; in assay [4], 1260 nM; in assay [5], 751 nM; in assay [6], 588 nM; in assay [7], 529 nM. Further, the Kd in assay [8] came to 1490 nM.

B3: BCY16905 (peptide)
peptide: CRNPDNPVCRFYC
modifications: not checked
Molecule B3 showed a Kd in [9] of 10 nM.

B4: BCY16540 (peptide)
peptide: CYNHANPVCRYYC
modifications: not checked
B4: in [1], the Kd is > 883 nM.

B5: BCY16534 (peptide)
peptide: CASPDNPVCRFYC
modifications: not checked
As to B5, in assay [1], the Kd came out at 381 nM.

B6: BCY16287 (peptide)
peptide: ACDVCGLNAFNRCA[Sar][Sar][Sar][Sar][Sar][Sar][KFl]
modifications: cysteine pairing not given here
On to B6, for which the Kd is 54 nM in assay [2]; 69 nM in [5]; 53 nM in assay [10]; 49 nM in assay [11]; 1120 nM in [12]; 58 nM in [6]. This molecule gave a Kd in assay [8] of 55 nM.

B7: BCY15437 (peptide)
peptide: ACFDDWTCYIQMCA[Sar][Sar][Sar][Sar][Sar][Sar]K(Fl)
modifications: not fully specified; cysteine pairing not given here
On to B7, for which the figures for the Kd in assay [13] and in [14] were 17 nM and 15 nM, respectively.

B8: BCY15299 (peptide)
peptide: ACEDHDWVYCSTCA[Sar][Sar][Sar][Sar][Sar][Sar][KFl]
modifications: cysteine pairing not given here
For B8, the Kd in assay [2] was 710 nM; in assay [15] it was 676 nM; in assay [3], 579 nM; in [4], 935 nM; in assay [5], 988 nM; in assay [10] it was 548 nM. For the same molecule, the dissociation constant Kd amounted to 441 nM in assay [11], 944 nM in assay [6], 531 nM in [7] and 475 nM in assay [8].
